Measured values as given in paper doi:10.1101/2021.03.08.434344 (bioRxiv, 2021).

Biological target: the molecule itself
Assay: cryo-EM structure

B1: Homo sapiens ferritin (apoferritin) (natural protein, human, UniProt Q8TD27 1-165, looked up)
chain: MTTASTSQVRQNYHQDSEAAINRQINLELYASYVYLSMSYYFDRDDVALKNFAKYFLHQSHEEREHAEKLMKLQNQRGGRIFLQDIKKPDCDDWESGLNAMECALHLEKNVNQSLLEFPSPISPSPSCWHHYTTNRPQPQHHLLRPRRRKRPHSIPTPILIFRSP
- binding result: binds
